Measurements from publication doi:10.1101/2023.08.11.552966 (bioRxiv, 2023).
Numbering of substitutions follows the chain as printed. Names may count otherwise.

B1: 33m DNA (ssDNA)
DNA: TCCTTTTGATAAGAGGTCATTTTTGCGGATGGC
B2: 33m RNA (ssRNA)
RNA: GCCAUCCGCAAAAAUGACCUCUUAUCAAAAGGA
B3: His-tagged RAD51 S97A (non phosphorylable mutant) (natural protein)
chain: MAMQMQLEANADTSVEEESFGPQPISRLEQCGINANDVKKLEEAGFHTVEAVAYAPKKELINIKGISEAKADKILAEAAKLVPMGFTTATEFHQRRAEIIQITTGSKELDKLLQGGIETGSITEMFGEFRTGKTQICHTLAVTCQLPIDRGGGEGKAMYIDTEGTFRPERLLAVAERYGLSGSDVLDNVAYARAFNTDHQTQLLYQASAMMVESRYALLIVDSATALYRTDYSGRGELSARQMHLARFLRMLLRLADEFGVAVVITNQVVAQVDGAAMFAADPKKPIGGNIIAHASTTRLYLRKGRGETRICKIYDSPCLPEAEAMFAINADGVGDAKD
B4: His-tagged RAD51 S97D (phosphomimetic mutant) (natural protein)
chain: B3 chain with A97D

Experiments:
RAD51 WT = RAD51 WT (Homo sapiens, UniProt Q06609 1-339); assay: BLI
cross-linking = target: the molecule itself; assay: cross-linking

Binder	Kd (RAD51 WT)	binding result (cross-linking)
B1	3.84 µM	–
B2	0.53 µM	–
B3	–	binds
B4	–	binds
